Consider one molecule from PMC12131814.

The target in experiment [1] is superfolder green fluorescent protein (sfGFP). Put plainly: ITC. For orientation: In ITC the heat of successive injections is recorded.
The target is the same in experiment [2]. The experiment can be described thus: AUC.
Experiment [3] shares this target. Put plainly: MST.
Experiment [4] has the same target. The experiment can be described thus: MST. This is another data set of the same source.

B1: anti-GFP nanobody (GFP-enhancer) (VHH)
VHH: QVQLVESGGALVQPGGSLRLSCAASGFPVNRYSMRWYRQAPGKEREWVAGMSSAGDRSSYEDSVKGRFTISRDDARNTVYLQMNSLKPEDTAVYYCNVNVGFEYWGQGTQVTVSS
By Kd is commonly meant the free concentration of one partner at which half of the binding sites on the other are occupied at equilibrium, for simple one-to-one binding. The stoichiometry N is the number of molecules, sites or subunits per partner or assembly. On to B1, for which the Kd in experiment [1] amounted to 1 nM; in experiment [2], 1.72 nM; in experiment [3] it was 1.52 nM; in experiment [4], 1.53 nM. This molecule also came in with a dH in experiment [1] of -11.1 kcal/mol. Also, the stoichiometry N in experiment [2] is 1.
